Patent US20240254190A1 (published 2024)
Residue numbers refer to the chain shown, from its start. Blank lines part the entries; values can stand above or below the binder they belong to.

Columns and labels:
Test in all cases: cytokine release
[1] = molecular target: T1, p53 C135Y peptide on HLA-DQA1*02:01 / HLA-DQB1*02:02 (human)
T1 peptide: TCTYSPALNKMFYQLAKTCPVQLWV

[2] = molecular target: T2, p53 C135Y peptide on HLA-DPA1*02:01 / HLA-DPB1*02:01 (human)
T2 peptide: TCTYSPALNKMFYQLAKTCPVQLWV

[3] = molecular target: T3, p53 C135Y peptide on HLA-DRA*01:01 / HLA-DRB1*07:01 (human)
T3 peptide: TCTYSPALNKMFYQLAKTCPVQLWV

[4] = molecular target: T4, p53 C135Y peptide on HLA-DPA1*02:01 / HLA-DPB1*11:01 (human)
T4 peptide: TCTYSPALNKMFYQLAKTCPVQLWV

[5] = molecular target: T5, p53 C135Y peptide on HLA-DPA1*01:03 / HLA-DPB1*11:01 (human)
T5 peptide: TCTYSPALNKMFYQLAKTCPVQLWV

[6] = molecular target: T6, p53 C135Y peptide on HLA-DPA1*01:03 / HLA-DPB1*02:01 (human)
T6 peptide: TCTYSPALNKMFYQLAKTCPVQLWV

[7] = molecular target: T7, p53 C135Y peptide on HLA-DQA1*02:01 / HLA-DQB1*02:01 (human)
T7 peptide: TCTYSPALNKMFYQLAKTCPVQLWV

[8] = molecular target: T8, p53 C135Y peptide on HLA-DQA*01:01 / HLA-DRB4*01:01 (human)
T8 peptide: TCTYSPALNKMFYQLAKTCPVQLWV

[9] = molecular target: T9, p53 C135Y peptide on HLA-DQA1*01:01 / HLA-DQB1*02:02 (human)
T9 peptide: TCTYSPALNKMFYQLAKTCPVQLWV

[10] = molecular target: T10, p53 wild type peptide on HLA-DRA*01:01 / HLA-DRB1*07:01 (human)
T10 peptide: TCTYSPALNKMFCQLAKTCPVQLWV

[11] = molecular target: T11, p53 C135Y peptide on HLA-DRA*01:01 / HLA-DRB3*01:01 (human)
T11 peptide: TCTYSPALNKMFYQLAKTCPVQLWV

[12] = molecular target: T12, p53 C135Y peptide on HLA-DQA1*01:01 / HLA-DQB1*05:01 (human)
T12 peptide: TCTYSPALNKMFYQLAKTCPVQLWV

[13] = molecular target: T13, p53 C135Y peptide on HLA-DQA1*01:01 / HLA-DQB1*02:01 (human)
T13 peptide: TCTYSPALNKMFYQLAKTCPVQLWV

[14] = molecular target: T14, p53 C135Y peptide on HLA-DQA1*02:01 / HLA-DQB1*05:01 (human)
T14 peptide: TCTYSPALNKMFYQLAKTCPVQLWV

[15] = molecular target: T15, p53 R175H peptide on HLA-A*23:01 (human)
T15 peptide: HMTEVVRHC

[16] = molecular target: T16, p53 R175H peptide on HLA-B*44:03 (human)
T16 peptide: HMTEVVRHC

[17] = molecular target: T17, p53 R175H peptide on HLA-C*07:01 (human)
T17 peptide: HMTEVVRHC

[18] = molecular target: T18, p53 R175H peptide on HLA-C*04:01 (human)
T18 peptide: HMTEVVRHC

[19] = molecular target: T19, p53 R175H peptide on HLA-B*08:01 (human)
T19 peptide: HMTEVVRHC

[20] = molecular target: T20, p53 wild type peptide on HLA-A*02:01 (human)
T20 peptide: HMTEVVRRC

[21] = molecular target: T21, p53 wild type peptide on HLA-DRA*01:01 / HLA-DRB1*01:01 (human)
T21 peptide: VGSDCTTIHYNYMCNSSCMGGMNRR

B1: 4316-D TCR (TCR, V domains shown)
Valpha: QQVMQIPQYQHVQEGEDFTTYCNSSTTLSNIQWYKQRPGGHPVFLIQLVKSGEVKKQKRLTFQFGEAKKNSSLHITATQTTDVGTYFCAESYSGGYQKVTFGIGTKLQVIP
Vbeta: EPEVTQTPSHQVTQMGQEVILRCVPISNHLYFYWYRQILGQKVEFLVSFYNNEISEKSEIFDDQFSVERPDGSNFTLKIRSTKLEDSAMYFCASSSFSNEQFFGPGTRLTVL
binding result [1]: no recognition
binding result [2]: no recognition
binding result [3]: recognises
binding result [4]: no recognition
binding result [5]: no recognition
binding result [6]: no recognition
binding result [7]: no recognition
binding result [8]: no recognition
binding result [9]: no recognition
binding result [10]: no recognition
binding result [11]: no recognition
binding result [12]: no recognition
binding result [13]: no recognition
binding result [14]: no recognition

B2: 4141 IVS TCR (TCR, V domains shown)
Valpha: QTVTQSQPEMSVQEAETVTLSCTYDTSENNYYLFWYKQPPSRQMILVIRQEAYKQQNATENRFSVNFQKAAKSFSLKISDSQLGDTAMYFCAFMAYMEYGNKLVFGAGTILRVKS
Vbeta: B1 Vbeta with S94C, S95K, S96G, F97I, S98T, N99D, E100T, F102Y
binding result [15]: no recognition
binding result [16]: no recognition
binding result [17]: no recognition
binding result [18]: no recognition
binding result [19]: no recognition
binding result [20]: no recognition

B4: 4304 TCR-2 (TCR, V domains shown)
Valpha: QSVSQHNHHVILSEAASLELGCNYSYGGTVNLFWYVQYPGQHLQLLLKYFSGDPLVKGIKGFEAEFIKSKFSFNLRKPSVQWSDTAEYFCAVTFMDTGRRALTFGSGTRLQVQP
Vbeta: GVSQSPSNKVTEKGKDVELRCDPISGHTALYWYRQSLGQGLEFLIYFQGNSAPDKSGLPSDRFSAERTGGSVSTLTIQRTQQEDSAVYLCASSPRGGDYEQYFGPGTRLTVT
binding result [21]: no recognition

Other lines, results leading:

binding result [21]: no recognition
B3: 4304 TCR-4 (TCR, V domains shown)
Valpha: QKEVEQNSGPLSVPEGAIASLNCTYSDRGSQSFFWYRQYSGKSPELIMFIYSNGDKEDGRFTAQLNKASQYVSLLIRDSQPSDSATYLCAVRGGNTGFQKLVFGTGTRLLVSP
Vbeta: AVISQKPSRDICQRGTSLTIQCQVDSQVTMMFWYRQQPGQSLTLIATANQGSEATYESGFVIDKFPISRPNLTFSTLTVSNMSPEDSSIYLCSVRSEDTQYFGPGTRLTVL

binding result [21]: no recognition
B5: 4304 TCR-K (TCR, V domains shown)
Valpha: KDQVFQPSTVASSEGAVVEIFCNHSVSNAYNFFWYLHFPGCAPRLLVKGSKPSQQGRYNMTYERFSSSLLILQVREADAAVYYCAVSGYQLIWGAGTKLIIKP
Vbeta: GVAQSPRYKIIEKRQSVAFWCNPISGHATLYWYQQILGQGPKLLIQFQNNGVVDDSQLPKDRFSAERLKGVDSTLKIQPAKLEDSAVYLCASSLDRRGGRETQYFGPGTRLLVL
